Source: US20240382606A1
Several values for one entry are separate records, joined by “and”; a condition that tells them apart may be missing. Equal entries are not always repeated.

Assays:
[1] = biological target: P14 T cell receptor (TCR that specifically recognizes LCMV GP33/D^b), on CD8+ T cells of P14 TCR transgenic mice (mouse); assay: flow cytometry after intravenous injection of pMHC-LNPs carrying mCD19 CAR mRNA in p14 mice
[2] = biological target: P14 T cell receptor (TCR that specifically recognizes LCMV GP33/D^b), on CD8+ T cells of P14 TCR transgenic mice (mouse); assay: flow cytometry, APNs on CD8+ T cells from P14 mice, in vitro
[3] = biological target: Pmel T cell receptor (cognate TCR against GP100/D^b), on CD8+ T cells of Pmel TCR transgenic mice (mouse); assay: cell-based or functional assay
[4] = biological target: P14 T cell receptor (TCR that specifically recognizes LCMV GP33/D^b), on CD8+ T cells of P14 TCR transgenic mice (mouse); assay: cell-based or functional assay
[5] = biological target: P14 T cell receptor (TCR that specifically recognizes LCMV GP33/D^b), on CD8+ T cells of P14 TCR transgenic mice (mouse)
[6] = biological target: P14 T cell receptor (TCR that specifically recognizes LCMV GP33/D^b), on CD8+ T cells of P14 TCR transgenic mice (mouse); remark: listed apart in the source

Substance	percent of CD8+ T cells targeted [1] [%]	percent of CD8+ T cells bound [2] [%]	in vivo transfection of Pmel CD8+ splenocytes (surface VHH) [3]	in vivo transfection efficiency (surface VHH) of P14 CD8+ splenocytes [4] [%]	in vivo transfection efficiency of mCD19 CAR mRNA in CD8+ T cells of p14 mice [4] [%]	in vivo transfection of CD8+ T cells with hCD19 CAR mRNA in p14 mice [4] [%]	transfection efficiency with eGFP mRNA in P14 CD8+ T cells in vitro [4] [%]	percent of CD8+ T cells targeted (DiD fluorescence) [5] [%]	percent of CD8+ splenocytes stained [6] [%]	percent of CD8+ T cells stained [2] [%]	percent binding (DiD fluorescence) [5] [%]
GP33/D^b antigen-presenting nanoparticle (APN): LCMV GP33 peptide […] on H2-D^b, lipid-anchore (peptide-MHC)	> 80	97	3%	40	60	30	31	> 95			
GP33/D^b tetramer (fluorescent streptavidin tetramer of […]/H2-D^b monomers) (from UniProt P01899 25-309) (peptide-MHC)									> 95		
GP100/D^b antigen-presenting nanoparticle (APN): GP100 peptide … on H2-D^b on an mRNA lipid nanoparticle (peptide-MHC)			30% and 40%	< 2						3.22	< 2
